Test results as given in patent US20250108100A1, “C-TERMINAL FRAGMENT OF APOLIPOPROTEIN E AND APPLICATION THEREOF IN INHIBITING y-SECRETASE ACTIVITY” (SYNPHATEC (SHANGHAI) BIOPHARMACEUTICAL TECHNOLOGY CO., LTD., priority 2022, published 2025).

B1: CT ND3CD20: SEQ ID NO: 31; ApoE CT minus 3 N-terminal and 20 C-terminal residues (protein)
chain: EEMGSRTRDRLDEVKEQVAEVRAKLEEQAQQIRLQAEAFQARLKSWFEPLVEDMQRQWAGL
B2: CT ND4: SEQ ID NO: 21; ApoE CT with 4 N-terminal amino acids deleted (protein)
chain: EMGSRTRDRLDEVKEQVAEVRAKLEEQAQQIRLQAEAFQARLKSWFEPLVEDMQRQWAGLVEKVQAAVGTSAAPVPSDNH
B3: CT ND3: SEQ ID NO: 20; ApoE CT with 3 N-terminal amino acids deleted (protein)
chain: EEMGSRTRDRLDEVKEQVAEVRAKLEEQAQQIRLQAEAFQARLKSWFEPLVEDMQRQWAGLVEKVQAAVGTSAAPVPSDNH
B4: CT NA5: SEQ ID NO: 17; ApoE CT with 5 original ApoE residues added to the N-terminus (protein)
chain: GERLRARMEEMGSRTRDRLDEVKEQVAEVRAKLEEQAQQIRLQAEAFQARLKSWFEPLVEDMQRQWAGLVEKVQAAVGTSAAPVPSDNH
B5: CT NA4: SEQ ID NO: 16; ApoE CT with 4 original ApoE residues added to the N-terminus (protein)
chain: ERLRARMEEMGSRTRDRLDEVKEQVAEVRAKLEEQAQQIRLQAEAFQARLKSWFEPLVEDMQRQWAGLVEKVQAAVGTSAAPVPSDNH
B6: CT ND1: SEQ ID NO: 18; ApoE CT with 1 N-terminal amino acid deleted (protein)
chain: RMEEMGSRTRDRLDEVKEQVAEVRAKLEEQAQQIRLQAEAFQARLKSWFEPLVEDMQRQWAGLVEKVQAAVGTSAAPVPSDNH
B7: CT ND3CD11: SEQ ID NO: 26; ApoE CT minus 3 N-terminal and 11 C-terminal residues (protein)
chain: EEMGSRTRDRLDEVKEQVAEVRAKLEEQAQQIRLQAEAFQARLKSWFEPLVEDMQRQWAGLVEKVQAAVG
B8: CT NA1: SEQ ID NO: 13; ApoE CT with 1 original ApoE residue added to the N-terminus (protein)
chain: RARMEEMGSRTRDRLDEVKEQVAEVRAKLEEQAQQIRLQAEAFQARLKSWFEPLVEDMQRQWAGLVEKVQAAVGTSAAPVPSDNH
B9: CT CD10: SEQ ID NO: 24; ApoE CT with 10 C-terminal amino acids deleted (protein)
chain: ARMEEMGSRTRDRLDEVKEQVAEVRAKLEEQAQQIRLQAEAFQARLKSWFEPLVEDMQRQWAGLVEKVQAAVGT
B10: CT ND3CD10: SEQ ID NO: 25; ApoE CT minus 3 N-terminal and 10 C-terminal residues (protein)
chain: EEMGSRTRDRLDEVKEQVAEVRAKLEEQAQQIRLQAEAFQARLKSWFEPLVEDMQRQWAGLVEKVQAAVGT
B11: CT NA3: SEQ ID NO: 15; ApoE CT with 3 original ApoE residues added to the N-terminus (protein)
chain: RLRARMEEMGSRTRDRLDEVKEQVAEVRAKLEEQAQQIRLQAEAFQARLKSWFEPLVEDMQRQWAGLVEKVQAAVGTSAAPVPSDNH
B12: CT ND3CD12: SEQ ID NO: 27; ApoE CT minus 3 N-terminal and 12 C-terminal residues (protein)
chain: EEMGSRTRDRLDEVKEQVAEVRAKLEEQAQQIRLQAEAFQARLKSWFEPLVEDMQRQWAGLVEKVQAAV
B13: CT ND3CD13: SEQ ID NO: 28; ApoE CT minus 3 N-terminal and 13 C-terminal residues (protein)
chain: EEMGSRTRDRLDEVKEQVAEVRAKLEEQAQQIRLQAEAFQARLKSWFEPLVEDMQRQWAGLVEKVQAA
B14: CT ND2: SEQ ID NO: 19; ApoE CT with 2 N-terminal amino acids deleted (protein)
chain: MEEMGSRTRDRLDEVKEQVAEVRAKLEEQAQQIRLQAEAFQARLKSWFEPLVEDMQRQWAGLVEKVQAAVGTSAAPVPSDNH
B15: CT ND5: SEQ ID NO: 22; ApoE CT with 5 N-terminal amino acids deleted (protein)
chain: MGSRTRDRLDEVKEQVAEVRAKLEEQAQQIRLQAEAFQARLKSWFEPLVEDMQRQWAGLVEKVQAAVGTSAAPVPSDNH
B16: CT ND3CD14: SEQ ID NO: 29; ApoE CT minus 3 N-terminal and 14 C-terminal residues (protein)
chain: EEMGSRTRDRLDEVKEQVAEVRAKLEEQAQQIRLQAEAFQARLKSWFEPLVEDMQRQWAGLVEKVQA
B17: CT CD5: SEQ ID NO: 23; ApoE CT with 5 C-terminal amino acids deleted (protein)
chain: ARMEEMGSRTRDRLDEVKEQVAEVRAKLEEQAQQIRLQAEAFQARLKSWFEPLVEDMQRQWAGLVEKVQAAVGTSAAPV
B18: CT NA2: SEQ ID NO: 14; ApoE CT with 2 original ApoE residues added to the N-terminus (protein)
chain: LRARMEEMGSRTRDRLDEVKEQVAEVRAKLEEQAQQIRLQAEAFQARLKSWFEPLVEDMQRQWAGLVEKVQAAVGTSAAPVPSDNH
B19: CT ND3CD15: SEQ ID NO: 30; ApoE CT minus 3 N-terminal and 15 C-terminal residues (protein)
chain: EEMGSRTRDRLDEVKEQVAEVRAKLEEQAQQIRLQAEAFQARLKSWFEPLVEDMQRQWAGLVEKVQ

Test system: human APP and β-secretase co-expressed in HEK 293T cells
Test: HEK 293T cells co-expressing APP and β-secretase (BACE1): Aβ ELISA and β-CTF Western blot
Type: cell-based
Details: APP and β-secretase co-expressed, ELISA, vs GFP control
Experimental: The experiment was performed according to the standard procedure in the ELISA analysis kit of Invitrogen Company. • a) The target protein was expressed in HEK 293T cell line. Cells were subcultured one day before transfection, and transfection was performed when the degree of cell adhesion reached 70%-80%. The transfection reagent was lipofectamine2000 (ThermoFisher). • b) 4-6 hours post transfection, medium were replaced with fresh cell culture medium. • c) 36-48 hours post transfection, the cell culture medium was collected, and then the ELISA process was performed or the cell culture medium was frozen in a −80° C. refrigerator. • d) 50 μl of standard samples and experimental samples were added to each well of the 96-well plate. • e) 50 μl of human-derived Aβ40 or Aβ42 or mouse-derived Aβ40 detection antibody was added to each well of the 96-well plate. • f) The above samples were shaken gently and placed at room temperature for 3 hours. • g) The liquid in the well were removed, and the plate was washed 4 times with 1× wash buffer. • h) 100 μl of the buffer containing 1× anti-Rabbit IgG HRP was added. • i) The plate was shaken gently and placed at room temperature for […]. • j) The liquid in the well were removed, and the well was washed 4 times with 1× wash buffer. • k) 100 μl of Stabilized Chromogen was added to each well, and the plate was placed in the dark for 30 minutes at room temperature. • l) 100 μl of Stop Solution was added to each well. • m) The absorbance at 450 nm was measured with a microplate reader. 2.4 qRT-PCR
48 hours after transfection of HEK 293T cells and N2A cells, or 4.5 days after lentivirus infection of neurons, media and lysates were collected. Aβ40 and Aβ42 in the culture medium and cell lysates were detected by an Aβ ELISA kit as indicated in the protocol. (Invitrogen Technology; KHB3481 for human Aβ40, KHB3441 for human Aβ42 and KMB3481 for mouse Aβ40).
Data were analyzed by GraphPad Prism software (v6) using unpaired, paired, or one-sample t-tests. Aβ40 and Aβ42 levels were normalized to the corresponding GFP controls. α-CTF levels were normalized to FL-APP and corresponding GFP controls. All data are represented as mean±SEM. Statistical significance was defined as p<0.05. One, two, three and four stars (*) in the graph indicate p-values <0.05, <0.01, <0.001 and <0.0001, respectively.

Molecule | production of Aβ40
B1 | can still significantly reduce Aβ40
B2 | can still reduce Aβ40
B3 | can still reduce Aβ40
B4 | completely lost the ability to reduce Aβ
B5 | completely lost the ability to reduce Aβ
B6 | can still reduce Aβ40
B7 | can still significantly reduce Aβ40
B8 | still reduces the production of Aβ40
B9 | still reduce the production of Aβ
B10 | can still significantly reduce Aβ40
B11 | completely lost the ability to reduce Aβ
B12 | can still significantly reduce Aβ40
B13 | can still significantly reduce Aβ40
B14 | can still reduce Aβ40
B15 | can still reduce Aβ40
B16 | can still significantly reduce Aβ40
B17 | still reduce the production of Aβ
B18 | completely lost the ability to reduce Aβ
B19 | can still significantly reduce Aβ40
